One assay has as its target T1, JUN/FOS heterodimer (Homo sapiens, UniProt P05412).
T1 construct: made in house
In words: Competition FRET assay. The assay is classed as binding. How it is done: The amount of acceptor used varied for each curve, taking into account the Kd of the FRET complex in order to obtain a good lower baseline for fitting purposes. Samples were equilibrated for one hour before reading the plates; repeated reading of the plates over several hours gave no change in signal. For the competition experiments, the IC50 was determined in MATLAB by fitting the binding data to the equation signal=[…] , where a and b are the lower and upper baselines, c is the IC50 value, x is the inhibitor concentration, and the Hill coefficient H was set to 1. Ki values were calculated as in Fu et al..

The next assay concerns the target NFE2L3 (human) (UniProt Q9Y4A8). In words: FRET or BRET; direct-binding FRET in 384-well plates; rhodamine-labelled design (acceptor) titrated 0 to 1 uM into 10 nM fluorescein-labelled bZIP (donor); 150 mM KCl, 50 mM potassium phosphate pH 7.4, 0.1% Tween-20, 0.1% BSA; 4 °C.
The target of another assay is MAF (Homo sapiens, UniProt O75444). The description is as above.
Chain of MAF (O75444 whole entry): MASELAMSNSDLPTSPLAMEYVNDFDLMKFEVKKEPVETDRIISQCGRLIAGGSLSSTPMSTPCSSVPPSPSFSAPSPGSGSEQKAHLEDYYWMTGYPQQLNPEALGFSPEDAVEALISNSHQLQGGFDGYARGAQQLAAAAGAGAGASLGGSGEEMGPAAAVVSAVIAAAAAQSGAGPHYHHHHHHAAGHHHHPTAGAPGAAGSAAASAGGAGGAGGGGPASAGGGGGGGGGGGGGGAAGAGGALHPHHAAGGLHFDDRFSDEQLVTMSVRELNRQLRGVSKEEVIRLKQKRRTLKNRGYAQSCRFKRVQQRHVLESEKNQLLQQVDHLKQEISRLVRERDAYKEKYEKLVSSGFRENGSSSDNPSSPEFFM
Assay [1] addresses T2, FOS (Homo sapiens, UniProt P01100). The assay is described as above.
A further assay deals with MAFG (Homo sapiens, UniProt O15525). The assay is described as above.
Chain of MAFG (O15525 whole entry): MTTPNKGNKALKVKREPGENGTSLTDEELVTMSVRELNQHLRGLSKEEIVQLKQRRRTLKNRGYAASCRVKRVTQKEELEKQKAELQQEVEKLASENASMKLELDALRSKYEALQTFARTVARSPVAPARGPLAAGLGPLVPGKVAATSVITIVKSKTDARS
For the next assay, the target named is NFIL3 (human) (UniProt Q16649). Described as above.
Chain of NFIL3 (human) (Q16649 whole entry): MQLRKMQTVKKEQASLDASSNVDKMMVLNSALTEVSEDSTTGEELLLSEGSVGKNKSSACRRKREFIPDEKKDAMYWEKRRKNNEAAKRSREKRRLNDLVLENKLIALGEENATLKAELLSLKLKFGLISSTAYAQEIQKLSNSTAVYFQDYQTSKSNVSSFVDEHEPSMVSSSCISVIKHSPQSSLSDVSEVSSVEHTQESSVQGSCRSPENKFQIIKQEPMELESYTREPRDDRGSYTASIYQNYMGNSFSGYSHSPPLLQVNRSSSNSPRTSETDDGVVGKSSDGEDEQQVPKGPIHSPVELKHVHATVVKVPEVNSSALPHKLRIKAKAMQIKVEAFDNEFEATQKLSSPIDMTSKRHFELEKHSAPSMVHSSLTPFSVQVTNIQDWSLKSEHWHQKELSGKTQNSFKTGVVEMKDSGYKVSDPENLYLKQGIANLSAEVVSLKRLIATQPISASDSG
For a further assay, the target named is ATF6B (Homo sapiens, UniProt Q99941). The assay is described as above.
Chain of ATF6B (Q99941 whole entry): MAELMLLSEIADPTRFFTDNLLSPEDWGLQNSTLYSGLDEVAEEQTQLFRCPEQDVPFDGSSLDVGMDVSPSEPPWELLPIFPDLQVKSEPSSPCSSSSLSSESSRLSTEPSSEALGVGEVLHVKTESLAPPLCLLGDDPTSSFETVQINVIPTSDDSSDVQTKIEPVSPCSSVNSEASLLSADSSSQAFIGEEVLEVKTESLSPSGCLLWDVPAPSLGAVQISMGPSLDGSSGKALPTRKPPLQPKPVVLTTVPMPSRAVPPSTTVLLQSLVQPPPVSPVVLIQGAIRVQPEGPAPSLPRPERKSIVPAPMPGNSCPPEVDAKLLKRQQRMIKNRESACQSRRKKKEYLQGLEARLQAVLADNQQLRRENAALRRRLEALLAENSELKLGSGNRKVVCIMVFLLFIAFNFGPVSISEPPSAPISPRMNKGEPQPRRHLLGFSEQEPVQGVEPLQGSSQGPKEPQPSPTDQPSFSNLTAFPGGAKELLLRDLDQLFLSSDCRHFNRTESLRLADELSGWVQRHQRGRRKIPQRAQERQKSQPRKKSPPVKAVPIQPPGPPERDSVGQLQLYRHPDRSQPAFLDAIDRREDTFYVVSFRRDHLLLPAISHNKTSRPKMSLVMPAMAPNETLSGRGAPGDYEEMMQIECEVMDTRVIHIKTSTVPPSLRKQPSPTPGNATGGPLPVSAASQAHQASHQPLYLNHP
The target of a further assay is BACH1 (Homo sapiens, UniProt O14867). The description is as above.
Chain of BACH1 (O14867 whole entry): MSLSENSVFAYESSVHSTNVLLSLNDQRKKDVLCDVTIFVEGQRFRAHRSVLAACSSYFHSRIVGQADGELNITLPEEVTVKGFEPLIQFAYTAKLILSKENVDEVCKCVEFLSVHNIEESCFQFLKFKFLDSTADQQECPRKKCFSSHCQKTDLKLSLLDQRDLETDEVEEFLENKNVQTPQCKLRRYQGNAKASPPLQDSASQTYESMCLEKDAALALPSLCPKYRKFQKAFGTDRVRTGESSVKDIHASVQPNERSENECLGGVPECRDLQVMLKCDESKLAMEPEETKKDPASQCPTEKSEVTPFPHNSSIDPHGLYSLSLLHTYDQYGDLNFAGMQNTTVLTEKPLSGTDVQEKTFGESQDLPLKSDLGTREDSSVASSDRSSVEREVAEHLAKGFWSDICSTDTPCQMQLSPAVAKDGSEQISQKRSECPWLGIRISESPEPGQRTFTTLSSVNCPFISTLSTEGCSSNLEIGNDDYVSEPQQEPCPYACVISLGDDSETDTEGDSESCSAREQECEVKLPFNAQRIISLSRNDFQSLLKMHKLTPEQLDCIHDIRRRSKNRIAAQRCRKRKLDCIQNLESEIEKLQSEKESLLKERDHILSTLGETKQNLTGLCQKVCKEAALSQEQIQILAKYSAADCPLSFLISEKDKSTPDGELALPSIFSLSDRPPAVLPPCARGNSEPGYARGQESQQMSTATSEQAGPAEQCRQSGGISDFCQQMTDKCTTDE
Assay [2] has as its target MAFF (human) (UniProt Q9ULX9). The description is as above.
In the next assay the target is MAFB (Homo sapiens, UniProt Q9Y5Q3). The description is as above.
Assay [3] has as its target MAFF (human) (UniProt Q9ULX9). In words: FRET or BRET; direct-binding FRET in 384-well plates; rhodamine-labelled design (acceptor) titrated 0 to 1 uM into 10 nM fluorescein-labelled bZIP (donor); 150 mM KCl, 50 mM potassium phosphate pH 7.4, 0.1% Tween-20, 0.1% BSA; 37 °C.
The next assay addresses ATF2 (human) (UniProt P15336). The description is as above.
The target of assay [4] is X-box binding protein 1 (human) (UniProt P17861). Described as above.
Chain of X-box binding protein 1 (human) (P17861 whole entry): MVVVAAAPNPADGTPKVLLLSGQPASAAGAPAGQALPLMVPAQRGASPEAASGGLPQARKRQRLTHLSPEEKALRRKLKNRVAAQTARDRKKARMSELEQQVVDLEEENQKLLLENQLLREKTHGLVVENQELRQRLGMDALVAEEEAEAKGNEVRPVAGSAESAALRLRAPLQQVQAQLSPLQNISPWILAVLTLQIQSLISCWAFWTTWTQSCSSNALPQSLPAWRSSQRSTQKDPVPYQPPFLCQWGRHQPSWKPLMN
Assay [5] has as its target Activating Transcription Factor (ATF) 3 (human) (UniProt P18847). In words: FRET or BRET; direct-binding FRET in 384-well plates; rhodamine-labelled design (acceptor) titrated 0 to 1 uM into 10 nM fluorescein-labelled bZIP (donor); 150 mM KCl, 50 mM potassium phosphate pH 7.4, 0.1% Tween-20, 0.1% BSA; 4 °C. A general note: Bioluminescence resonance energy transfer reports proximity on the nanometre scale.

Assay [6] deals with T2, FOS. Nature of the assay: FRET or BRET; direct-binding FRET in 384-well plates; rhodamine-labelled design (acceptor) titrated 0 to 1 uM into 10 nM fluorescein-labelled bZIP (donor); 150 mM KCl, 50 mM potassium phosphate pH 7.4, 0.1% Tween-20, 0.1% BSA; 37 °C.
A further assay has as its target HLF (human) (UniProt Q16534). The description is as above.
For a further assay, the target named is JUN (Homo sapiens, UniProt P05412). The description is as above.

Experimental findings from paper PMC4335062, “Data-Driven Prediction and Design of bZIP Coiled-Coil Interactions” (PLoS Computational Biology, 2015) are described below.

Values joined by “and” are separate entries in the source; they are usually repeats but may differ in a detail not shown here. Equal entries are not always repeated. Where no end group is shown, it is not given here. Bounds are passed on as bounds.

T2 sequence (P01100 whole entry): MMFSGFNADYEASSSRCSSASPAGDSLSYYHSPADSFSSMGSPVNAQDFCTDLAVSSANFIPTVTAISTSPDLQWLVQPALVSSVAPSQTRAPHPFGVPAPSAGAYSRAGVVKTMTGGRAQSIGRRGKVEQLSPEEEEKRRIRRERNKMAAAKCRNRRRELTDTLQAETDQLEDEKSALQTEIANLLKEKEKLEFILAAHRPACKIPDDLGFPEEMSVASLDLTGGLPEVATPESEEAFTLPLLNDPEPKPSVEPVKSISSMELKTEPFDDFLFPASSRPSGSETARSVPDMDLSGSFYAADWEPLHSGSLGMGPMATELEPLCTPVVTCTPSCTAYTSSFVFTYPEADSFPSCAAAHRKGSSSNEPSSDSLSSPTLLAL
Chain of MAFF (human) (Q9ULX9 whole entry): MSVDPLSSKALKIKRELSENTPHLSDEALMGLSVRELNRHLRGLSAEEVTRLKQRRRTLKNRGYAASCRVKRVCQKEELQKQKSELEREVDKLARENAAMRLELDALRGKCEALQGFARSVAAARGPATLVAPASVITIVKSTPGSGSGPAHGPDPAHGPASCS
Chain of Activating Transcription Factor (ATF) 3 (human) (P18847 whole entry): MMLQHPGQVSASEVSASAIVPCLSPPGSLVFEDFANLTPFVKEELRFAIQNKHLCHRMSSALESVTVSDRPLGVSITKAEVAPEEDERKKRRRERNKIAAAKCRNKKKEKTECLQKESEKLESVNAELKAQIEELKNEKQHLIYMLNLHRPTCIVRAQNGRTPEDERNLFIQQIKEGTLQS
Chain of NFE2L3 (human) (Q9Y4A8 whole entry): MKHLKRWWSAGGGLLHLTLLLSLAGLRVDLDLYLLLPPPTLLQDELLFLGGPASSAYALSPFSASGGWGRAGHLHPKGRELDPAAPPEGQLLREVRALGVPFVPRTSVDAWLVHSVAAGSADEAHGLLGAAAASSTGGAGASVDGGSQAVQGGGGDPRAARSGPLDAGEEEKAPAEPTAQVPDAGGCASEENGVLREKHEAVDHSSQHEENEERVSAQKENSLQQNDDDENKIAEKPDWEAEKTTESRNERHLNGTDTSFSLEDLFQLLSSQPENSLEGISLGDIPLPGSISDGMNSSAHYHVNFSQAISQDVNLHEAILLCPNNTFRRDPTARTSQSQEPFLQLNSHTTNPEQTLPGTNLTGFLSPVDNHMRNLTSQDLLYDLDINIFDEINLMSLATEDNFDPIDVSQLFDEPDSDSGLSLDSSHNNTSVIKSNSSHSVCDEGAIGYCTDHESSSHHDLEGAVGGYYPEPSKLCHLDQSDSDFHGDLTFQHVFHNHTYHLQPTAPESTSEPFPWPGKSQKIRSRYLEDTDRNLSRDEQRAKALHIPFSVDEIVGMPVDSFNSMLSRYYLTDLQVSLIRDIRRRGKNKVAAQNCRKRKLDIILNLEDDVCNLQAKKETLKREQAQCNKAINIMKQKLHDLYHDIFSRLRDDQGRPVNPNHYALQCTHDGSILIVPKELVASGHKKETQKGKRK
Chain of HLF (human) (Q16534 whole entry): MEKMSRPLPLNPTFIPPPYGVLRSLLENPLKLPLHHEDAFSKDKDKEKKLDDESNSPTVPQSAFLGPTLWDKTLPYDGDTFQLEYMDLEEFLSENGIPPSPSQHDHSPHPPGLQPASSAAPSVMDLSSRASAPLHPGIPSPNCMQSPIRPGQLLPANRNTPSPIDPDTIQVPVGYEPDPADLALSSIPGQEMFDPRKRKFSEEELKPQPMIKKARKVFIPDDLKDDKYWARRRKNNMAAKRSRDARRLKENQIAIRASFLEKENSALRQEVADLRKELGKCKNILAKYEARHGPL
Chain of ATF2 (human) (P15336 whole entry): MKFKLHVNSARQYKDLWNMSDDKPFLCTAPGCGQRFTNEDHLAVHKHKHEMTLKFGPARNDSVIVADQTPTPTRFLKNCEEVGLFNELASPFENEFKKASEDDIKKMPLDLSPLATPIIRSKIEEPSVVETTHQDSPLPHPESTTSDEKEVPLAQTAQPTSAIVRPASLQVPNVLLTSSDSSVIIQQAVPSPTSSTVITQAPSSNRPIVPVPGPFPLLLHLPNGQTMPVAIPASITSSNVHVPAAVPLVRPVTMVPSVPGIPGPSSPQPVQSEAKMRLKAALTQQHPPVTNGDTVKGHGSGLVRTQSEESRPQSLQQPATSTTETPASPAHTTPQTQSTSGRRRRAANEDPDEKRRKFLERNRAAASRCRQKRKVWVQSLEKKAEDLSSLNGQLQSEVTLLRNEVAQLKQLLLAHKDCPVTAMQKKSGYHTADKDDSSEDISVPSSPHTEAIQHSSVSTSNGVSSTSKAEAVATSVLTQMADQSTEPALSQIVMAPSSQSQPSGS

By IC50 is commonly meant the concentration needed to halve the response being measured. Low readings indicate greater potency in that assay, high ones weaker potency in that assay. Turning to “SIAATLEKEEANLEKMNKKLAAEIESLLKEKDKLESVLNYHE [JUN-d1]”, the IC50 at JUN/FOS heterodimer was determined as 245 nM.

B1: ATF4-d1 labeled at the C-terminus (designed binder)
chain: GESKEYKKGSGSNQIKTLRTRLSKLRKDNLQLEKDIANLERKAKDLRAEKEQLEYELGC
modifications: also: C59 label by assay: Rhodamine Red C2-maleimide or fluorescein-5-maleimide
notes: solubility linker after the His6 tag; added to the C-terminus for labeling; one molecule for the rhodamine- and the fluorescein-labelled form; the assay tells which label stood there; also called ATF4-d1-Rhodamine; ATF4-d1-FITC; source: E. coli RP3098, purified (Ni-NTA under denaturing conditions, reverse-phase HPLC)
One may read the Kd as the concentration at which binding is half-saturated. On to B1, for which the dissociation constant (Kd) in the assay with NFE2L3 (human) was 1000 nM; with MAF it was above 5000 nM; with FOS [1], 1000 nM; with MAFG, 1000 nM; in the assay with NFIL3 (human), 22.8 nM and 23.3 nM and 22.6 nM; in the assay with ATF6B, 1000 nM. In addition, the dissociation constant (Kd) with BACH1 was above 5000 nM; in the assay with MAFF (human) [2], above 5000 nM; with MAFB, above 5000 nM; with MAFF (human) [3], 327 nM; with ATF2 (human), above 5000 nM; in assay [4], above 5000 nM.

B2: ATF5-d1 labeled at the C-terminus (designed binder)
chain: GESKEYKKGSGSKRIAYLRQRIAELRNENHVLESRIQRMEKEKDALQQDRDHLEYELGC(Rhodamine Red C2‑maleimide)
modifications: not fully specified
For the molecule B2, the equilibrium dissociation constant (Kd) (in assay [5]; in the assay with FOS [6]; in the assay with HLF (human); in the assay with JUN) was above 5000 nM throughout.
